Measured values from paper PMC10845952, “Mass spectrometry and split luciferase complementation assays reveal the MecA protein interactome of Streptococcus mutans” (Microbiology Spectrum, 2024).

B1: GltB fused to the RenG C-terminal domain (156-314) (natural protein, S. mutans, UniProt Q8CWY8 1-478, looked up)
chain: MADPFGFLKYERKDNPYRPVNERIKDFEELQTTLSVEERQKQAARCMNCGIPFCHEGTFYGGGRAVSGCPNDNLIPEWNDLIYKGDFRRAFERLTRTNPLPEMTGRVCPAPCEKACTEGLNGSGVTIHDNERFIIDNAFEEGWVADSGRPIERTGFKVAVVGSGPAGLSAAWRLNQLGHSVTVFERSDRFGGLLMYGIPNMKLDKKIVQRRIDTMASIGINFVANTEIGRDITAEELLEKFDRVILATGASVPRDLDIPGRDLKGIRFAVDFLTETTKNLLDSDTHELPPLLEGKHVLVIGGGDTGNDCIGTAVRLGAASVRQLEITPQLPEKRLPTNPWPQYPMINRTGYGQEEADFVQQTDLTDYITSTVEFLGENGQVTAVKTIKVGPGFKAIEGTEEVIKADLVLLAMGFTGAEKALFDQFRVECVYDDYSTRNEKVFVAGDARRGPSLVIWGIREGRKTAEKIDQNLRMMVTE
B2: PheT fused to the RenG C-terminal domain (156-314) (natural protein, S. mutans, UniProt Q8CWX2 1-801, looked up)
chain: MLVSYKWLKELVDIDVPSHELAEKMSTTGIEVEGVDVPAEGLSKLVVGHVLSCEDVPETHLHLCQVDTGEEESRQIVCGAPNITAGIKVIVALPGARIADNYKIKKGKIRGMESLGMICSLQELGLPDSIIPKEYSDGIQILPEDAVPGESIFPYLDLDDEIIELSITPNRADALSMRGVAHEVAAIYDKSVHFEDKVLTESDKKAADLIKVAIASDKVLTYKARVVENVTIKPSPQWLQNLLMNAGIRPINNVVDVTNYVLLYFGQPMHAFDLDKFEGKDILARQAKAGEKLVTLDGEARDLIEEDLVITVADKPVALAGVMGGAATEIDASSKNVVLEAAVFDGKSVRKTSSRLNLRSESSSRFEKGVNYADVVKALDFAAAMLTELADGTVLAGQVSAGAVPTDDIQVSTSLDYVNVRLGTDLVFSDIESVFARLGFGLSGNDEKFTVSVPRRRWDISIQADLVEEIARIYGYDKLPTTLPEAAGTVGELTKTQKLRRKIRNLAEGSGLSEIISYALTTPEKAVAFTPNPTKITELMWPMTVDRSALRQNIVSGMLDTIAYNVARKSNNLALYEIGKVFEQTADPKKDLPKEIDTFAFALTGLVTEKDFQTAATPVDFFYAKGVLEAILAKLEITVQFVATKEMANMHPGRTALIERDGQVIGYLGQVHPQTAKLYDIPETYVAEVNLNALEAALKSDLVFEDITKFPAVSRDIALLLSEKVSHQDILDAIAASGVKRLIKVKLFDVYAGEKLGVGKKSMAYSLTFQNPNDNLTDEEVAKYMEKITSALTEKVGAEVR
notes: Phenylalanine-tRNA ligase subunit beta, PheT; S. mutans UA159; not shown: RenG luciferase C-terminal domain (156-314), C-terminal, kept
B3: UvrA fused to the RenG C-terminal domain (156-314) (natural protein, S. mutans, UniProt P72481 1-943, looked up)
chain: MQDKLIIRGARAHNLKNIDVEIPRDKLIVMTGLSGSGKSSLAFDTIYAEGQRRYVESLSAYARQFLGNMDKPDVDSIDGLSPAISIDQKTTSKNPRSTVGTVTEINDYLRLLYARVGIPYCKNGHGAITASSVEQIVDQVLILPERTRMQILAPVVRRKKGQHKAVFDRIQKDGYVRVRIDGDIMDVAEVPELSKNKMHNIEVVVDRLVQKDGIRGRLFDSIEAALHLGDGYVIIDTMDDHELIFSEHYSCPVCGFTVPELEPRLFSFNAPFGSCPTCDGLGIKLEVDLDLVIPDENKTLREGTLAPWNPISSNYYPQLLEQAMNAFGVDMDKPWKDLSDEDKKLVLHGSGDTAFHFHYQNDFGGVRDIDIPFEGIISNISRRYHETNSDFTRNVMRSYMNELPCATCHGYRLNDQALSVRVGGKEGLNIGQVSELSIADHLSLLTHLELSENEKTIATPIVKEIKDRLTFLNNVGLNYLTLSRSAGTLSGGESQRIRLATQIGSNLSGVLYILDEPSIGLHQRDNDRLISSLKKMRDLGNTLIVVEHDEDTMMAADWLVDVGPGAGALGGEIVASGTPRQVAKNKKSITGQYLSGKKKIPVPLDRRKGSGRFIEIKGAAENNLQNINVKFPLGKFIAVTGVSGSGKSTLVNSILKKVIAQKLNRNSEKPGKYKSISGIEHIDRLIDIDQSPIGRTPRSNPATYTGVFDDIRDLFAQTNEAKIRGYKKGRFSFNVKGGRCEACSGDGIIKIEMHFLPDVYVPCEVCHGTRYNSETLEVHYKDKNIAEILNMTVNDAAEFFAPIPKIARKIRTIKDVGLGYVTLGQPATTLSGGEAQRMKLASELHKRSTGKSFYILDEPTTGLHTDDIARLLKVLERFVDDGNTVLVIEHNLDVIKTADHIIDLGPEGGVGGGQVIATGTPEQVAEMTESYTGQYLKGRLNEK
notes: Excinuclease ABC subunit, UvrA; S. mutans UA159; not shown: RenG luciferase C-terminal domain (156-314), C-terminal, kept
B4: IlvD fused to the RenG C-terminal domain (156-314) (natural protein)
chain: not shown
notes: Dihydroxy-acid dehydratase, IlvD; S. mutans UA159; not shown: RenG luciferase C-terminal domain (156-314), C-terminal, kept
B5: MnmG fused to the RenG C-terminal domain (156-314) (natural protein, S. mutans, UniProt Q8DRS6 1-631, looked up)
chain: MTHEFTENYDVIVIGAGHAGVEASLATSRMGCKTLLATINLEMLAFMPCNPSIGGSAKGIVVREIDALGGEMGKNIDKSYIQMRMLNTGKGPAVRALRAQADKALYARNMKHTVEQQENLTLRQSMIDEILVEDGKVIGVRTATNQKYSAQAVIVTTGTALRGEIILGELKYSSGPNNSLASVTLADNLRDLGLEIGRFKTGTPPRVKANSIHYDETEIQPGDKKANHFSFMSKDEDYLKDQIPCWLTYTNQSSHDIINKNLYRAPMFSGIVKGVGPRYCPSIEDKIVRFADKDRHQLFLEPEGRETEEVYIQGLSTSLPEDVQKDVVHSIKGLENAEMMRTGYAIEYDIVLPHQLRATLETKKISGLFTAGQTNGTSGYEEAAGQGIVAGINAALKIQGKPELILKRSDAYIGVMIDDLVTKGTLEPYRLLTSRAEYRLILRHDNADLRLTEIGHQVGLVNEERYMRFQIRKNQFDNELTRLSSIKLKPVAEINKRIEELGFKPLTDALTAKEFMRRPEINYAIATSFVGPAAESLDEKVIELLETEIKYEGYINKALDQVAKMKRMEEKRIPKNIDWDAIDSIATEARQKFKKINPETIGQASRISGVNPADISILMVYLEGKNRSRTR
notes: not shown: RenG luciferase C-terminal domain (156-314), C-terminal, kept
B6: ClpC with the RenG C-terminal domain (156-314) fused to its N-terminus (natural protein, S. mutans, UniProt Q8DS14 1-813, looked up)
chain: MTDYSLKMQEVFRLAQFEAARFESSYLESWHVLLAMVEIDSSVAGLSFAEFEADVRFEDYQAAAILAIGKKPKSSSNDIMLLEQSHALKRTLAEAAAISQVTHAKEVGTEHVLFAMLLNPNLLATRILELVGFHAKDDGESIRLLDLRKVIERYAGFSKEDIKAIFEMRKPKKVKNSSSFSDLMKPPSVTGELADFTRDLTELARQGRLEPVIGREQEISRMVQILSRKTKNNPVLVGDAGVGKTALAYGLAQRIVDSAVPFELADMKVLELDMMSVVAGTRFRGDFEERMNQIIADIEADGHIVLFIDELHTIMGSGSGIDSTLDAANILKPALARGSLRTIGATTQEEYQKHIEKDAALSRRFAKVTIEEPSEEEAYQILLGLKKSYETYHHVIISDAAVMAAVKGAHRYLSGKNLPDSAIDLLDEASATVQGLVKKKAPAYLTDLDHALITNDYQLAKRLLKKEKKPLLKKRAEVKEEDILATLSKLSGIPVKKLTQADSKKYLNLERELHKRVIGQDDAVSSISRAIRRNQSGIRVGKRPIGSFMFLGPTGVGKTELAKALAEVLFDDESALIRFDMSEYMEKFAASRLNGAPPGYVGYEEGGELTEKVRNKPYSVLLFDEVEKAHPDIFNILLQVLDDGVLTDSRGRKVDFSNTIIIMTSNLGATALRDDKTVGFGAKSFSQDYKAMESRILEELKKVYRPEFINRIDEKVVFHNLGQEDIRHIVKIMVAPLIAHLADQGITLKFQPSALKHLALAGYDAEMGARPLRRTLQTEVEDKLAELILSGKLASGQTLKIGIQKEKLKFDIV
notes: also called N-ClpC
B7: TopA fused to the RenG C-terminal domain (156-314) (natural protein, S. mutans, UniProt Q8DUD3 1-705, looked up)
chain: MTSKTTTTVKKTSKKRATPKKNLVIVESPAKAKTIEKYLGRSYKVVASVGHIRDLKKSSMSIDFDNNYEPQYINIRGKGPLINSLKKEAKNAKQIFLASDPDREGEAISWHLAHILDLDLKGKNRVVFNEITKDAVKNAFVEPRQIDMDLVDAQQARRVLDRIVGYSISPILWKKVKKGLSAGRVQSVALKLIIDRENEIKAFKPEEYWSIDGFFKKGNKKFQANFYGLDNKKTKLKSNDDVKKVLTRIKNDDFLVDKVEKKERKRNAPLPYTTSSLQQDAANKINFRTRKTMMVAQQLYEGIRLGSNGQQGLITYMRTDSTRISPVAQNDAANYITEHFGAEYSKHGNHVRNASGAQDAHEAIRPSNVNHTPESIAKYLDKDQLKLYTLIWNRFVASQMTAAVFDTVKVNLTQNGVLFIANGSQIKFKGYMAVYNDSDKTKVLPEMIKGETVKKISANPEQHFTQPPARYSEASLIKTLEENGVGRPSTYAPTLETIQKRYYVRLVSKRFEPTELGEIVNSLIIEFFPDIVDVKFTAEMESKLDEVEIGKEEWQKVIDQFYKPFEKEVIKAEEQMEKIQIKDEPAGFDCDVCGHPMVIKLGRYGKFYACSNFPDCHNTKAITKEIGVICPICQKGQVIERKTKRNRIFYGCDRYPDCDFTSWNKPIGRDCPKSGDFLVEKKIRGGGKQVVCSNEECDYKEKAVK
B8: AlaS fused to the RenG C-terminal domain (156-314) (natural protein, S. mutans, UniProt Q8CWY0 1-872, looked up)
chain: MKQLTSAQVRQMWLDFWKSKDHAIEPSANLVPVNDPTLLWINSGVATLKKYFDGSVIPENPRITNAQKAIRTNDIENVGKTARHHTMFEMLGNFSVGDYFRDDAIKWGFELLTSPEWFDLPKDKLYMTYYPDDKDSYNRWIECGVDPSHLIPIEDNFWEIGAGPSGPDTEIFFDRGEDFDPDHIGVRLLAEDIENDRYIEIWNIVLSQFNADPAVPRSEYKELPHKNIDTGAGLERLVAVMQGAKTNFETDLFMPIIREIEKLSGKTYDQDGDNMSFKVIADHIRSLSFAIGDGALPGNEGRGYVLRRLLRRAVMHGRRLGINEPFLYKLVPTVGKIMESYYPEVLEKQDFIEKIVKREEETFARTIDAGSNMLDQLLADLKAADKDTLEGKDIFRLYDTYGFPVELTEELAEDAGFKIDHQGFQAAMKEQQERARANVVKGGSMGMQNETLSNITEKSTFNYEKEALDSSLSVIIADNKRIEAVSEGQVLLVFSETPFYAEMGGQVADHGLIKNDKGDTVARVTDVQKAPNGQALHTVDVLGSLSVGTTYHLEIDHERRNRVMKNHTATHLLHAALHNVIGNHATQAGSLNEVEFLRFDFTHFEAVTPEELRQIEEEVNQQIWKAIPVTTIETDLDTAKEMGAMALFGEKYGKNVRVVSIGDYSVELCGGTHLKNTSEIGIFKIVKEEGIGSGTRRILAVTSKEAFEAYRQEEDILKEIATTLKAPQMNQVANKVASLQDQLHKLQKENAELKEKAAAVAAGDIFKDVKEVNGLRYIASQVEVADAGALRTFADKWKQKDYSDVLVLVASIGKKVNVLVASKSKDIHAGNLIKALAPIVSGRGGGKPDMAMAGGSDASAIKDLIAAVAENL
notes: Alanine-tRNA ligase, AlaS; S. mutans UA159; not shown: RenG luciferase C-terminal domain (156-314), C-terminal, kept

What follows are binders tested against T1, MecA fused to the RenG N-terminal domain (1-155) (S. mutans, UniProt Q8DW33 1-240) (assay: split reporter (BiFC, NanoBiT)). Conditions: partners not purified.
T1 construct: adaptor protein MecA; S. mutans UA159; source: S. mutans, expressed in live cells; not shown: RenG luciferase N-terminal domain (1-155), C-terminal, kept
T1 sequence: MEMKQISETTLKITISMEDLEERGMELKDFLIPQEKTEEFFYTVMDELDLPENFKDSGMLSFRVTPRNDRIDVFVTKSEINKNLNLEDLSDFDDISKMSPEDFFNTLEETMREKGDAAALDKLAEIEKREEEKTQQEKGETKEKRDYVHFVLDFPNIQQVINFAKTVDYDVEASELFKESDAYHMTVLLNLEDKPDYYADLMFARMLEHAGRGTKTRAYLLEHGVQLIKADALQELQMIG

Binder | relative binding affinity (%)
B1 | 7.45 ± 0.28
B2 | 17.9 ± 0.77
B3 | 7.86 ± 0.3
B4 | 13.1 ± 0.61
B5 | 8 ± 0.33
B6 | 55.2 ± 4.16
B7 | 8.64 ± 0.36
B8 | 5.5 ± 0.29
